B1: ΔN17-Arf1 (S. cerevisiae Arf1 lacking its N-terminal amphipathic helix) (domain or fragment, UniProt P11076 18-181, looked up)
chain: MRILMVGLDGAGKTTVLYKLKLGEVITTIPTIGFNVETVQYKNISFTVWDVGGQDRIRSLWRHYYRNTEGVIFVVDSNDRSRIGEAREVMQRMLNEDELRNAAWLVFANKQDLPEAMSAAEITEKLGLHSIRNRPWFIQATCATSGEGLYEGLEWLSNSLKNST
notes: Arf1 GTPase, Saccharomyces cerevisiae, truncated form lacking the N-terminal 17 residues (ΔN17); In the complex Arf1 is nucleotide-free (trapped with alkaline phosphatase); also called nucleotide-free Arf1; Arf1-NF; source: E. coli Rosetta2, purified as previously described (Richardson and Fromme, 2015; Richardson et al., 2012)
B2: Gea2 (full-length Saccharomyces cerevisiae Gea2) (enzyme, UniProt P39993 1-1459, looked up)
chain: MSDREFVTVDPVTIIIKECINLSTAMRKYSKFTSQSGVAALLGGGSEIFSNQDDYLAHTFNNLNTNKHNDPFLSGFIQLRLMLNKLKNLDNIDSLTILQPFLLIVSTSSISGYITSLALDSLQKFFTLNIINESSQNYIGAHRATVNALTHCRFEGSQQLSDDSVLLKVVFLLRSIVDSPYGDLLSNSIIYDVLQTILSLACNNRRSEVLRNAAQSTMIAVTVKIFSKLKTIEPVNVNQIYINDESYTNDVLKADTIGTNVESKEEGSQEDPIGMKVNNEEAISEDDGIEEEHIHSEKSTNGAEQLDIVQKTTRSNSRIQAYADDNYGLPVVRQYLNLLLSLIAPENELKHSYSTRIFGLELIQTALEISGDRLQLYPRLFTLISDPIFKSILFIIQNTTKLSLLQATLQLFTTLVVILGNNLQLQIELTLTRIFSILLDDGTANNSSSENKNKPSIIKELLIEQISILWTRSPSFFTSTFINFDCNLDRADVSINFLKALTKLALPESALTTTESVPPICLEGLVSLVDDMFDHMKDIDREEFGRQKNEMEILKKRDRKTEFIECTNAFNEKPKKGIPMLIEKGFIASDSDKDIAEFLFNNNNRMNKKTIGLLLCHPDKVSLLNEYIRLFDFSGLRVDEAIRILLTKFRLPGESQQIERIIEAFSSAYCENQDYDPSKISDNAEDDISTVQPDADSVFILSYSIIMLNTDLHNPQVKEHMSFEDYSGNLKGCCNHKDFPFWYLDRIYCSIRDKEIVMPEEHHGNEKWFEDAWNNLISSTTVITEIKKDTQSVMDKLTPLELLNFDRAIFKQVGPSIVSTLFNIYVVASDDHISTRMITSLDKCSYISAFFDFKDLFNDILNSIAKGTTLINSSHDDELSTLAFEYGPMPLVQIKFEDTNTEIPVSTDAVRFGRSFKGQLNTVVFFRIIRRNKDPKIFSKELWLNIVNIILTLYEDLILSPDIFPDLQKRLKLSNLPKPSPEISINKSKESKGLLSTFASYLKGDEEPTEEEIKSSKKAMECIKSSNIAASVFGNESNITADLIKTLLDSAKTEKNADNSRYFEAELLFIIELTIALFLFCKEEKELGKFILQKVFQLSHTKGLTKRTVRRMLTYKILLISLCADQTEYLSKLINDELLKKGDIFTQKFFATNQGKEFLKRLFSLTESEFYRGFLLGNENFWKFLRKVTAMKEQSESIFEYLNESIKTDSNILTNENFMWVLGLLDEISSMGAVGNHWEIEYKKLTESGHKIDKENPYKKSIELSLKSIQLTSHLLEDNNDLRKNEIFAIIQALAHQCINPCKQISEFAVVTLEQTLINKIEIPTNEMESVEELIEGGLLPLLNSSETQEDQKILISSILTIISNVYLHYLKLGKTSNETFLKILSIFNKFVEDSDIEKKLQQLILDKKSIEKGNGSSSHGSAHEQTPESNDVEIEATAPIDDNTDDDNKPKLSDVEKD
notes: Gea2, guanine nucleotide exchange factor for Arf1, Saccharomyces cerevisiae, full length; also called Arf-GEF Gea2; source: Pichia pastoris (KM71H), overexpressed, purified (Ni-NTA, MonoQ, TEV cleavage, Superdex 200 Increase SEC); not shown: His6, N-terminal, cleaved

For data set [1], the target named is B2. Kind of data set: cryo-EM structure; Gea2-Arf1 complex: 1 mg Gea2, 5 mg ΔN17-Arf1 and 250 units alkaline phosphatase at 4°C overnight, then SEC (20 mM Tris pH 8.0, 300 mM NaCl, 1 mM DTT); nucleotide-free activation intermediate; ~5 mg/mL with 2 mM fluorinated fos-choline-8. To be noted: both partners purified.
Data set [2] deals with the molecule itself. Kind of data set: cryo-EM structure; Gea2 alone, ~5 mg/mL in SEC buffer (20 mM Tris pH 8.0, 150 mM NaCl, 1 mM DTT) with 2 mM fluorinated fos-choline-8; three dimeric conformations (closed/closed, closed/open, open/open).

The record followed here is paper PMC9469209, “Structural basis for activation of Arf1 at the Golgi complex” (Cell reports, 2022).

For B1, the binding result in data set [1] was “binds”. Turning to B2, in data set [2], the stoichiometry N (usually a count of units in the complex or per binding partner) turned out to be 2.
